# From IntAct's records for PubMed 29997244
# B1: DnaJ homolog subfamily C member 5 (Homo sapiens), Q9H3Z4 (parent)
# chain: MADQRQRSLSTSGESLYHVLGLDKNATSDDIKKSYRKLALKYHPDKNPDNPEAADKFKEINNAHAILTDATKRNIYDKYGSLGLYVAEQFGEENVNTYFVLSSWWAKALFVFCGLLTCCYCCCCLCCCFNCCCGKCKPKAPEGEETEFYVSPEDLEAQLQSDEREATDTPIVIQPASATETTQLTADSHPSYHTDGFN
# Variants of: B1
# Details: with zdh17_human ZDHHC17, Q8IUH5
# Chain of zdh17_human ZDHHC17, Q8IUH5 (Q8IUH5 whole entry): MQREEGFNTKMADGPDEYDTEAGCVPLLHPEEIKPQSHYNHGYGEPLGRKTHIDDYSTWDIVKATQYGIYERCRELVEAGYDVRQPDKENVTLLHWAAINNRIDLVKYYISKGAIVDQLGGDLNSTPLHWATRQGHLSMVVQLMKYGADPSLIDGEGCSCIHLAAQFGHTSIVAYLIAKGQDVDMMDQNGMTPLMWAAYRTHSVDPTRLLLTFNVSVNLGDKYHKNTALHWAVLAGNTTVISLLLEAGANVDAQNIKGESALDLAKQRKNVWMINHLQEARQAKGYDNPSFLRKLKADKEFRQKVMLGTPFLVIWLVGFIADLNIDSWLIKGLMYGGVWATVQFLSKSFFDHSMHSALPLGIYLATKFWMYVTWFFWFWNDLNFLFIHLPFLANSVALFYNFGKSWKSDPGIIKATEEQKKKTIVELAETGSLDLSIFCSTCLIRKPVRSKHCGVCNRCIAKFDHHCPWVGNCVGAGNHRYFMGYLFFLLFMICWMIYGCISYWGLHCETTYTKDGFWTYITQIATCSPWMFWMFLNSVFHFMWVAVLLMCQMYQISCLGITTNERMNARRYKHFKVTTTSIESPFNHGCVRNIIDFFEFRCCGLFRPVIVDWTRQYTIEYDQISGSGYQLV
row,Variant,effect of a mutation on the interaction
1,MADQRQRSLSTSGESLYHVLGLDKNATSDDIKKSYRKLALKYHPDKNPDNPEAADKFKEINNAHAILTDATKRNIYDKYGSLGLYVAEQFGEENVNTYFVLSSWWAKALFVFCGRLTCCYCCCCLCCCFNCCCGKCKPKAPEGEETEFYVSPEDLEAQLQSDEREATDTPIVIQPASATETTQLTADSHPSYHTDGFN,increasing interaction strength

# Variants of: B1
# Details: with ap2b1_human AP2B1, P63010
row,Variant,effect of a mutation on the interaction
1,MADQRQRSLSTSGESLYHVLGLDKNATSDDIKKSYRKLALKYHPDKNPDNPEAADKFKEINNAHAILTDATKRNIYDKYGSLGLYVAEQFGEENVNTYFVLSSWWAKALFVFCGRLTCCYCCCCLCCCFNCCCGKCKPKAPEGEETEFYVSPEDLEAQLQSDEREATDTPIVIQPASATETTQLTADSHPSYHTDGFN,with no effect

# Variants of: B1
# Details: with caps1_human CADPS
row,Variant,effect of a mutation on the interaction
1,MADQRQRSLSTSGESLYHVLGLDKNATSDDIKKSYRKLALKYHPDKNPDNPEAADKFKEINNAHAILTDATKRNIYDKYGSLGLYVAEQFGEENVNTYFVLSSWWAKALFVFCGRLTCCYCCCCLCCCFNCCCGKCKPKAPEGEETEFYVSPEDLEAQLQSDEREATDTPIVIQPASATETTQLTADSHPSYHTDGFN,with no effect

# Variants of: B1
# Details: with cskp_human CASK
row,Variant,effect of a mutation on the interaction
1,MADQRQRSLSTSGESLYHVLGLDKNATSDDIKKSYRKLALKYHPDKNPDNPEAADKFKEINNAHAILTDATKRNIYDKYGSLGLYVAEQFGEENVNTYFVLSSWWAKALFVFCGRLTCCYCCCCLCCCFNCCCGKCKPKAPEGEETEFYVSPEDLEAQLQSDEREATDTPIVIQPASATETTQLTADSHPSYHTDGFN,increasing interaction strength

# Variants of: B1
# Details: with lipa1_human PPFIA1, Q13136
# Chain of lipa1_human PPFIA1, Q13136 (Q13136 whole entry): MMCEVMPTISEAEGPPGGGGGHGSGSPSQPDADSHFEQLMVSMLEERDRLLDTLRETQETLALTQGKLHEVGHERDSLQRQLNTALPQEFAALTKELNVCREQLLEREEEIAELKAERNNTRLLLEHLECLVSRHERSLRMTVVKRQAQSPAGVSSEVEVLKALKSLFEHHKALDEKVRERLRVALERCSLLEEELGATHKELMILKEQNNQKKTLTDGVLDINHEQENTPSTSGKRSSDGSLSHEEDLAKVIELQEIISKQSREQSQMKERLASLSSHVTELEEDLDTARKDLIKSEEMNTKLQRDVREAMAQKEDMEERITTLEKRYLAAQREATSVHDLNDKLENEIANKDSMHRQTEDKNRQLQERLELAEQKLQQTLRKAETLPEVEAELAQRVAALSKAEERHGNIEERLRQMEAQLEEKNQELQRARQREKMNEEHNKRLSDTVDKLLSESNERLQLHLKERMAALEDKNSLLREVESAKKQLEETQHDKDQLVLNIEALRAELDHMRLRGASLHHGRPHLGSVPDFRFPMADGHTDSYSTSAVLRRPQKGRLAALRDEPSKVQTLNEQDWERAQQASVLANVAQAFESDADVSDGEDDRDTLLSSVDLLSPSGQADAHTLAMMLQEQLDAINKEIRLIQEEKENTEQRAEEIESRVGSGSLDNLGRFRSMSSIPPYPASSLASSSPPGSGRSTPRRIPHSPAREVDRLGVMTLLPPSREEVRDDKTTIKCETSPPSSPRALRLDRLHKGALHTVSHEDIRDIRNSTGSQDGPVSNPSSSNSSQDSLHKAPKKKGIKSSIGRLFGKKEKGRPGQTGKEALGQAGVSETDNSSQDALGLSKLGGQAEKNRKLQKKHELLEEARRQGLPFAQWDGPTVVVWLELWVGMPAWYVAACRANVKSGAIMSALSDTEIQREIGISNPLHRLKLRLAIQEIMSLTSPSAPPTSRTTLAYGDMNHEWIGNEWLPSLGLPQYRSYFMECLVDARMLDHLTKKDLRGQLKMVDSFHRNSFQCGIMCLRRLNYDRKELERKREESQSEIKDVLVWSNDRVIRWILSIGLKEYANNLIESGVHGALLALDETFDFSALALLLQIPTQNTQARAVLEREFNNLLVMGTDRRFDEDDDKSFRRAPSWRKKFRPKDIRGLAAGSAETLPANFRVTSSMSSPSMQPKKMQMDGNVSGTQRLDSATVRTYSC
row,Variant,effect of a mutation on the interaction
1,MADQRQRSLSTSGESLYHVLGLDKNATSDDIKKSYRKLALKYHPDKNPDNPEAADKFKEINNAHAILTDATKRNIYDKYGSLGLYVAEQFGEENVNTYFVLSSWWAKALFVFCGRLTCCYCCCCLCCCFNCCCGKCKPKAPEGEETEFYVSPEDLEAQLQSDEREATDTPIVIQPASATETTQLTADSHPSYHTDGFN,with no effect

# Variants of: B1
# Details: with lipa4_human PPFIA4, O75335
row,Variant,effect of a mutation on the interaction
1,MADQRQRSLSTSGESLYHVLGLDKNATSDDIKKSYRKLALKYHPDKNPDNPEAADKFKEINNAHAILTDATKRNIYDKYGSLGLYVAEQFGEENVNTYFVLSSWWAKALFVFCGRLTCCYCCCCLCCCFNCCCGKCKPKAPEGEETEFYVSPEDLEAQLQSDEREATDTPIVIQPASATETTQLTADSHPSYHTDGFN,increasing interaction strength

# Variants of: B1
# Details: with rabx5_human RABGEF1, Q9UJ41
row,Variant,effect of a mutation on the interaction
1,MADQRQRSLSTSGESLYHVLGLDKNATSDDIKKSYRKLALKYHPDKNPDNPEAADKFKEINNAHAILTDATKRNIYDKYGSLGLYVAEQFGEENVNTYFVLSSWWAKALFVFCGRLTCCYCCCCLCCCFNCCCGKCKPKAPEGEETEFYVSPEDLEAQLQSDEREATDTPIVIQPASATETTQLTADSHPSYHTDGFN,decreasing interaction strength

# Variants of: B1
# Details: with sh3g3_human SH3GL3, Q99963
# Chain of sh3g3_human SH3GL3, Q99963 (Q99963 whole entry): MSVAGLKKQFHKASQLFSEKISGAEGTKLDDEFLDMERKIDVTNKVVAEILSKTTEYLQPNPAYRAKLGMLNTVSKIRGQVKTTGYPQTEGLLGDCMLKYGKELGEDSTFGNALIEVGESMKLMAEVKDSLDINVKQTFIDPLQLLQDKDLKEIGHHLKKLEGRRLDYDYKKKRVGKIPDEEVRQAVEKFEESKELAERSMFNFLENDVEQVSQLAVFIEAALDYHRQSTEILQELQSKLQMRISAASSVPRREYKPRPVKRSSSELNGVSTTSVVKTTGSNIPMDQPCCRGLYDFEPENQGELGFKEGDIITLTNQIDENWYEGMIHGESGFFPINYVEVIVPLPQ
row,Variant,effect of a mutation on the interaction
1,MADQRQRSLSTSGESLYHVLGLDKNATSDDIKKSYRKLALKYHPDKNPDNPEAADKFKEINNAHAILTDATKRNIYDKYGSLGLYVAEQFGEENVNTYFVLSSWWAKALFVFCGRLTCCYCCCCLCCCFNCCCGKCKPKAPEGEETEFYVSPEDLEAQLQSDEREATDTPIVIQPASATETTQLTADSHPSYHTDGFN,with no effect

# Variants of: B1
# Details: with snp29_human SNAP29, O95721
# Chain of snp29_human SNAP29, O95721 (O95721 whole entry): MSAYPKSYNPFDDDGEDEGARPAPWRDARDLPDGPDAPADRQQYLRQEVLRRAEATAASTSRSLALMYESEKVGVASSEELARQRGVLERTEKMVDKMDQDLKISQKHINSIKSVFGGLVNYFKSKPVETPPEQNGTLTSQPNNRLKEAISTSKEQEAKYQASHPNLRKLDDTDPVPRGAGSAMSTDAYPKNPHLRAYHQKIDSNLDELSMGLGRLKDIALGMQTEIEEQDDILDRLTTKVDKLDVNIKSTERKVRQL
row,Variant,effect of a mutation on the interaction
1,MADQRQRSLSTSGESLYHVLGLDKNATSDDIKKSYRKLALKYHPDKNPDNPEAADKFKEINNAHAILTDATKRNIYDKYGSLGLYVAEQFGEENVNTYFVLSSWWAKALFVFCGRLTCCYCCCCLCCCFNCCCGKCKPKAPEGEETEFYVSPEDLEAQLQSDEREATDTPIVIQPASATETTQLTADSHPSYHTDGFN,with no effect

# Variants of: B1
# Details: with syua_human SNCA
row,Variant,effect of a mutation on the interaction
1,MADQRQRSLSTSGESLYHVLGLDKNATSDDIKKSYRKLALKYHPDKNPDNPEAADKFKEINNAHAILTDATKRNIYDKYGSLGLYVAEQFGEENVNTYFVLSSWWAKALFVFCGRLTCCYCCCCLCCCFNCCCGKCKPKAPEGEETEFYVSPEDLEAQLQSDEREATDTPIVIQPASATETTQLTADSHPSYHTDGFN,with no effect

# Variants of: B1
# Details: with zdh17_human ZDHHC17, Q8IUH5
# Remark: another data set of the same source
row,Variant,effect of a mutation on the interaction
1,MADQRQRSLSTSGESLYHVLGLDKNATSDDIKKSYRKLALKYHPDKNPDNPEAADKFKEINNAHAILTDATKRNIYDKYGSLGLYVAEQFGEENVNTYFVLSSWWAKALFVFCGRLTCCYCCCCLCCCFNCCCGKCKPKAPEGEETEFYVSPEDLEAQLQSDEREATDTPIVIQPASATETTQLTADSHPSYHTDGFN,decreasing interaction strength

# Variants of: B1
# Details: with grm8_human GRM8, O00222
# Chain of grm8_human GRM8, O00222 (O00222 whole entry): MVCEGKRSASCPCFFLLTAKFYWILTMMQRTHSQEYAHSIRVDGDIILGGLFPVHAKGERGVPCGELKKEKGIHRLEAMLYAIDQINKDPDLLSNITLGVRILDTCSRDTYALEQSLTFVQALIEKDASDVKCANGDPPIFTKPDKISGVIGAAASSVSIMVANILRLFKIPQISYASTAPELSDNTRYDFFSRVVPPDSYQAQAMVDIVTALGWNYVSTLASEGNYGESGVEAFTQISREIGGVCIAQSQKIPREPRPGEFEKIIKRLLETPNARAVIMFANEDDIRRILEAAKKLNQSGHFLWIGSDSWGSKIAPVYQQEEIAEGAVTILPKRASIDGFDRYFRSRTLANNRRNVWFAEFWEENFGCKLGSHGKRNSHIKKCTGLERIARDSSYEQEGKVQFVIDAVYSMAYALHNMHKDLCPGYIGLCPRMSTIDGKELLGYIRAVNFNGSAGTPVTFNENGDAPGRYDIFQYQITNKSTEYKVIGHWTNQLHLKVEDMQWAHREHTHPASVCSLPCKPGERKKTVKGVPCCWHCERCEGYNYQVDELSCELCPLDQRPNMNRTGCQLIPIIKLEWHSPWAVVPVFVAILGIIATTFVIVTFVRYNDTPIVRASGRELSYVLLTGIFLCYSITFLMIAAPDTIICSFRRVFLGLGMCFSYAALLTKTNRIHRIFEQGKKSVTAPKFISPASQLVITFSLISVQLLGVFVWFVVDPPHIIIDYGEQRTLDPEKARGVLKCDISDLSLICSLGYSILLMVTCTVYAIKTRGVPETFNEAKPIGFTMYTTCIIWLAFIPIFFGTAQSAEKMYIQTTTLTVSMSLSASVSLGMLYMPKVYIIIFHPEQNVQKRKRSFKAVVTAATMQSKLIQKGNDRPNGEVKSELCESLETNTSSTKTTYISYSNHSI
row,Variant,effect of a mutation on the interaction
1,MADQRQRSLSTSGESLYHVLGLDKNATSDDIKKSYRKLALKYHPDKNPDNPEAADKFKEINNAHAILTDATKRNIYDKYGSLGLYVAEQFGEENVNTYFVLSSWWAKALFVFCGRLTCCYCCCCLCCCFNCCCGKCKPKAPEGEETEFYVSPEDLEAQLQSDEREATDTPIVIQPASATETTQLTADSHPSYHTDGFN,decreasing interaction strength

# Variants of: B1
# Details: with nrx3b_human NRXN3, Q9HDB5
# Chain of nrx3b_human NRXN3, Q9HDB5 (Q9HDB5 whole entry): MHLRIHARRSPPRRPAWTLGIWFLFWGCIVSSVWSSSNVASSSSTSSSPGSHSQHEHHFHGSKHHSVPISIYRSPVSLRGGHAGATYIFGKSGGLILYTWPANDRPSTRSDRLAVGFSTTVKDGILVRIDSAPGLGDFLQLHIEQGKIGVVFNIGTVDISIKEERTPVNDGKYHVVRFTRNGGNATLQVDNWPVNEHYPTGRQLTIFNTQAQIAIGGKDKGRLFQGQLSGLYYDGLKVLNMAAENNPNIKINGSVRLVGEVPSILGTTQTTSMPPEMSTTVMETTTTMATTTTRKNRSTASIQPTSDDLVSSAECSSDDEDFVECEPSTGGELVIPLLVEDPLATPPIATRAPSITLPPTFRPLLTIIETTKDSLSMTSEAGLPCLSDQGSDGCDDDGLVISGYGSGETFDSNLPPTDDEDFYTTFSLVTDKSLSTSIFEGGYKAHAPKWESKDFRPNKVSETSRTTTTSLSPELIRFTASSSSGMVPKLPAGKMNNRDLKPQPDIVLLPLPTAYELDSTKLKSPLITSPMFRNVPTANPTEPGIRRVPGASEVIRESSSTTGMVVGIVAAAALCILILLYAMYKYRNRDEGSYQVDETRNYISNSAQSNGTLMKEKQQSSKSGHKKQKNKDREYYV
row,Variant,effect of a mutation on the interaction
1,MADQRQRSLSTSGESLYHVLGLDKNATSDDIKKSYRKLALKYHPDKNPDNPEAADKFKEINNAHAILTDATKRNIYDKYGSLGLYVAEQFGEENVNTYFVLSSWWAKALFVFCGRLTCCYCCCCLCCCFNCCCGKCKPKAPEGEETEFYVSPEDLEAQLQSDEREATDTPIVIQPASATETTQLTADSHPSYHTDGFN,decreasing interaction strength

# Variants of: B1
# Details: with syph_human SYP
row,Variant,effect of a mutation on the interaction
1,MADQRQRSLSTSGESLYHVLGLDKNATSDDIKKSYRKLALKYHPDKNPDNPEAADKFKEINNAHAILTDATKRNIYDKYGSLGLYVAEQFGEENVNTYFVLSSWWAKALFVFCGRLTCCYCCCCLCCCFNCCCGKCKPKAPEGEETEFYVSPEDLEAQLQSDEREATDTPIVIQPASATETTQLTADSHPSYHTDGFN,decreasing interaction strength

# Variants of: B1
# Details: with syt1_human SYT1, P21579
# Chain of syt1_human SYT1, P21579 (P21579 whole entry): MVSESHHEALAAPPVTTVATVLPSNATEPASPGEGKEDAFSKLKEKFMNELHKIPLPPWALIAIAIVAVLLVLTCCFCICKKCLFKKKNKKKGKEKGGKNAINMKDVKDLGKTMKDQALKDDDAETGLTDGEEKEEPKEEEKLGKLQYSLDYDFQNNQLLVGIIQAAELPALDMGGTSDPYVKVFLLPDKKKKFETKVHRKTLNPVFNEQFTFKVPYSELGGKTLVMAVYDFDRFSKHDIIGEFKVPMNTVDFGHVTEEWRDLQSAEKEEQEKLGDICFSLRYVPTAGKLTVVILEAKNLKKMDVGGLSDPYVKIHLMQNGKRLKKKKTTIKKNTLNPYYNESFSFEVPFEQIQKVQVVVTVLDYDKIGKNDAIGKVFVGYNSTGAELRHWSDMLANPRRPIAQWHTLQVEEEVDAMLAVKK
row,Variant,effect of a mutation on the interaction
1,MADQRQRSLSTSGESLYHVLGLDKNATSDDIKKSYRKLALKYHPDKNPDNPEAADKFKEINNAHAILTDATKRNIYDKYGSLGLYVAEQFGEENVNTYFVLSSWWAKALFVFCGRLTCCYCCCCLCCCFNCCCGKCKPKAPEGEETEFYVSPEDLEAQLQSDEREATDTPIVIQPASATETTQLTADSHPSYHTDGFN,decreasing interaction strength

# Variants of: B1
# Details: with vamp2_human VAMP2, P63027
# Chain of vamp2_human VAMP2, P63027 (P63027 whole entry): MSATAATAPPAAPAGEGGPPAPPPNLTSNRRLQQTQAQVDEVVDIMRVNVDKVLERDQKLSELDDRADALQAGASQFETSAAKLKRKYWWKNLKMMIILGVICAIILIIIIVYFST
row,Variant,effect of a mutation on the interaction
1,MADQRQRSLSTSGESLYHVLGLDKNATSDDIKKSYRKLALKYHPDKNPDNPEAADKFKEINNAHAILTDATKRNIYDKYGSLGLYVAEQFGEENVNTYFVLSSWWAKALFVFCGRLTCCYCCCCLCCCFNCCCGKCKPKAPEGEETEFYVSPEDLEAQLQSDEREATDTPIVIQPASATETTQLTADSHPSYHTDGFN,decreasing interaction strength

# Variants of: B1
# Details: with vamp3_human VAMP3, Q15836
# Chain of vamp3_human VAMP3, Q15836 (Q15836 whole entry): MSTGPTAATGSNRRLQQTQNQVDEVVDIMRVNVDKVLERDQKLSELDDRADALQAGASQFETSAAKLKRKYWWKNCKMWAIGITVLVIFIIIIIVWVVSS
row,Variant,effect of a mutation on the interaction
1,MADQRQRSLSTSGESLYHVLGLDKNATSDDIKKSYRKLALKYHPDKNPDNPEAADKFKEINNAHAILTDATKRNIYDKYGSLGLYVAEQFGEENVNTYFVLSSWWAKALFVFCGRLTCCYCCCCLCCCFNCCCGKCKPKAPEGEETEFYVSPEDLEAQLQSDEREATDTPIVIQPASATETTQLTADSHPSYHTDGFN,decreasing interaction strength

# Variants of: B1
# Details: with ap2a1_human AP2A1, O95782
row,Variant,effect of a mutation on the interaction
1,MADQRQRSLSTSGESLYHVLGLDKNATSDDIKKSYRKLALKYHPDKNPDNPEAADKFKEINNAHAILTDATKRNIYDKYGSLGLYVAEQFGEENVNTYFVLSSWWAKALFVFCGRLTCCYCCCCLCCCFNCCCGKCKPKAPEGEETEFYVSPEDLEAQLQSDEREATDTPIVIQPASATETTQLTADSHPSYHTDGFN,with no effect

# Variants of: B1
# Details: with ap2s1_human AP2S1, P53680
# Chain of ap2s1_human AP2S1, P53680 (P53680 whole entry): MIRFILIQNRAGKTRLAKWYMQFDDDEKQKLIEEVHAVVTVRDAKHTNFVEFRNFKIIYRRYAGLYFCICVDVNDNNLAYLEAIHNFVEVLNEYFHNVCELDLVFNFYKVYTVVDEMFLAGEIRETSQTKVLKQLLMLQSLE
row,Variant,effect of a mutation on the interaction
1,MADQRQRSLSTSGESLYHVLGLDKNATSDDIKKSYRKLALKYHPDKNPDNPEAADKFKEINNAHAILTDATKRNIYDKYGSLGLYVAEQFGEENVNTYFVLSSWWAKALFVFCGRLTCCYCCCCLCCCFNCCCGKCKPKAPEGEETEFYVSPEDLEAQLQSDEREATDTPIVIQPASATETTQLTADSHPSYHTDGFN,with no effect
